{"source": "patent US11707511B2", "about": "“Vaccine compositions and methods of using the same” (The Board of Supervisors of Louisiana State University and …, priority 2017, dated 2023)", "tested_on": "C. albicans 3153A", "test": "Passive transfer of mAbs or mAb cocktails i.p. before lethal i.v. challenge, mouse model of human disseminated candidiasis", "assay_type": "in vivo, Candida albicans", "settings": "for Protection against C. albicans / Protection against C. albicans (grade word): Table 6, single mAb 0.5 ml i.p. 4 h before i.v. 5×10^5 C. albicans 3153A, BALB/c mice; for Protection against Candida spp in mouse model: Against C. albicans / Protection against Candida spp in mouse model: Against C. albicans (grade word): Table 9; for Protection of adsorbed mAb / Protection / Protection (grade word): Table 15; for Protection of adsorbed mAb: mAb removed by absorption with Candida cells before transfer; for Protection / Protection (grade word): single universal peptide-specific mAb, C. albicans", "outline": "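Female BALB/c mice aged 6–8 weeks received 0.5 ml of a single mAb, or 1 ml of a two-mAb cocktail, i.p. 4 h before i.v. lethal C. albicans 3153A challenge, five mice per group over three experiments. Some groups were redosed every other day for two weeks. Survival followed to day 50.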", "data": [{"molecule": "10E7E2: IgG1 mAb of hybridoma 10E7E2, specific for GPV-P3; VH SEQ ID NO: 72, VL SEQ ID NO: 74 (antibody, V domains shown) VH: QVQLKQSGPGLVQPSQSLSITCTVSGFSLTSYGVHWVRQSPGKGLEWLGVIWSGGTTDYNAAFISRLSISKDNSKSQVFFKMNSLQANDTAIYYCARGGHRGFAYWGQGTLVTVSA VL: DIVMTQSHKFMSTSVGDRVSITCKASQDVGTAVAWYQQKPGQSPKLLIYWASTRHTGVPDRFTGSGSGTDFTLTISNVQSEDLADYFCQQYSSYPLTFGAGTKLELK", "values": [{"measurement": "Protection against C. albicans", "result": "(80-100%)"}, {"measurement": "Protection against C. albicans (grade word)", "result": "High"}, {"measurement": "Protection against Candida spp in mouse model: Against C. albicans", "result": "(80-100%"}, {"measurement": "Protection against Candida spp in mouse model: Against C. albicans (grade word)", "result": "High"}, {"measurement": "Protection of adsorbed mAb", "result": "None"}, {"measurement": "Protection", "result": "(80-100%)"}, {"measurement": "Protection (grade word)", "result": "High"}]}, {"molecule": "1D4H5: IgG1 mAb of hybridoma 1D4H5, specific for GPV-M1; VH SEQ ID NO: 64, VL SEQ ID NO: 66 (antibody, V domains shown) VH: MYLGLNCVFIVFLLKGVQSEVKLEESGGGLVQPGGSMKLSCVASGFTFSNYWMNWVRQSPEKGLEWVAEIRLKSNNYATHYAESVKGRFTISSDDSKSSVYLQMNNLRAEDTGIYYCSTGNYWGQGTTLTVSS VL: MDFQMQIISLLLISVTVIVSNGEIVLTQSPTTMAASPGEKITITCSASSTISSNYLHWYQQKPGFSPKLLIYRTSNLASGVPARFSGSGSGTSYSLTIGTMEAEDVATYYCQQGSTISRTFGSGTKLEIK", "values": [{"measurement": "Protection against C. albicans", "result": "(70-80%)"}, {"measurement": "Protection against C. albicans (grade word)", "result": "High"}, {"measurement": "Protection against Candida spp in mouse model: Against C. albicans", "result": "(70-80%)"}, {"measurement": "Protection against Candida spp in mouse model: Against C. albicans (grade word)", "result": "High"}, {"measurement": "Protection of adsorbed mAb", "result": "None"}, {"measurement": "Protection", "result": "(70-80%)"}, {"measurement": "Protection (grade word)", "result": "High"}]}]}
